Laboratory results published in article PMC6599135, “Atomic view into Plasmodium actin polymerization, ATP hydrolysis, and fragmentation” (PLoS Biology, 2019).

Target: the molecule itself
Test: negative-stain electron microscopy of polymerised samples; polymerised 16 h at 298 K at 20 uM in F buffer without jasplakinolide, diluted to 1 uM, stained with 2% uranyl acetate

B1: Plasmodium falciparum actin I, wild type (natural protein)
chain: not shown
notes: Plasmodium falciparum actin I; His74 is not methylated in the recombinant protein; In the pyrene assay about 10% of the actin carried N-(1-pyrene)iodoacetamide; also called PfActI; P. falciparum actin I; source: insect cells, purified (Ni-NTA, TEV cleavage, second Ni-NTA, Superdex 200 gel filtration)
B1: binds.
